From patent publication US20220340657A1 (L AND L BIO CO LTD NINGBO CHINA, published 2022)
Like-named read-outs stand apart in the source and are kept apart here.

Key:
Experiment in all cases: ELISA on coated human LAG-3, OD450 (Example 3, Example 13) [panel a]
human LAG-3-his [1] = molecular target: T1, human LAG-3-his (human, UniProt P18627 23-422)
T1 construct: range 23-422; also called hLAG-3-his; hLAG-3
T1 sequence: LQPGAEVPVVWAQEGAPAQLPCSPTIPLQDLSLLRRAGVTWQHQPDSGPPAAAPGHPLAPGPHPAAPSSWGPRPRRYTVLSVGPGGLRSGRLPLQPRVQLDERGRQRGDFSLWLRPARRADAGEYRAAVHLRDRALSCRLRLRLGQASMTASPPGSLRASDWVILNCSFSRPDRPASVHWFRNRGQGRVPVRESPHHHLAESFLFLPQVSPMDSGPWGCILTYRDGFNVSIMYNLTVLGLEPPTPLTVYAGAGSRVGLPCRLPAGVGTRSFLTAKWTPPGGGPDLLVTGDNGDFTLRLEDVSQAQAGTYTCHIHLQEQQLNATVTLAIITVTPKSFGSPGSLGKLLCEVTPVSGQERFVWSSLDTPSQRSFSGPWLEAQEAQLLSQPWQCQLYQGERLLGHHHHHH

human LAG-3-his [2] = molecular target: T1, human LAG-3-his; remark: listed apart in the source
human LAG-3-his [3] = molecular target: T1, human LAG-3-his; remark: listed apart in the source

Measured: EC50 (read off the curve)

B1: humanized anti-human LAG-3 antibody Ab2317 (antibody, human IgG4 S228P, kappa, V domains shown)
VH: QVQLVQSGAEVKKPGASVKVSCKASGYTFTDYEMHWVKQAPGQGLEWIGGIDPETEGIAYNQKFRGRATLTADKSTSTAYMELRSLRSDDTAVYYCTNSNYYGGREAWFAYWGQGTLVTVSS
VL: DIQMTQSPSSLSASVGDRVTITCRASQDIGSSLNWYQQKPGKAPKRLIYATSSLDSGVPSRFSGSRSGSDFTLTISSLQPEDFATYYCLQYVTSPLTFGGGTKVEIKR
notes: LG2317 / LG2343, human kappa / hIgG4
~0.3 nM: all assays above
